Test results published in patent US20050014687A1.

Molecular target: CG57008 protein, membrane bound (HAVcr-1, Hepatitis A virus cellular receptor 1) (human)
Assay: flow cytometry on polarized human CD4+ Th2 cells, 10 ug/ml; isotype control

geometric mean of the fluorescence intensity: 8.4
Substance: PK16.3 isotype matched control mAb (antibody)
